According to paper PMC10003648, “Polymer-Degrading Enzymes of Pseudomonas chloroaphis PA23 Display Broad Substrate Preferences” (International Journal of Molecular Sciences, 2023):

Test system: CCCCCCCC(=O)Oc1ccc([N+](=O)[O-])cc1
Assay: purified protein
Type: biochemical, Pseudomonas chlororaphis
Conditions: optimal assay conditions (optimum pH 6.0, 50 °C), 0.1-3.0 mmol/L substrate

Substance: LIP4 (Pseudomonas chlororaphis)
- Km: 0.333 mmol/L
